Assay results as given in patent US6509447B1, “G protein chimeras and methods of screening compounds” (Glaxo Welcome Inc., priority 1997, dated 2003).

Columns and labels:
[1] = molecular target: T1, Ste2p (Saccharomyces cerevisiae, UniProt D6VTK4); assay: Reverse halo assay for FUS1-HIS3 expression, MMY9 cells, Ste2p; format: cell-based; parameters: stimulates the endogenous yeast receptor Ste2p; endogenous in cells; host or cells: Saccharomyces cerevisiae strain MMY9 (derived from W303-1A, MATa); details: MMY9 cells with pRS314-GPA1, 3 nmol α-factor
T1 sequence (D6VTK4 1-431): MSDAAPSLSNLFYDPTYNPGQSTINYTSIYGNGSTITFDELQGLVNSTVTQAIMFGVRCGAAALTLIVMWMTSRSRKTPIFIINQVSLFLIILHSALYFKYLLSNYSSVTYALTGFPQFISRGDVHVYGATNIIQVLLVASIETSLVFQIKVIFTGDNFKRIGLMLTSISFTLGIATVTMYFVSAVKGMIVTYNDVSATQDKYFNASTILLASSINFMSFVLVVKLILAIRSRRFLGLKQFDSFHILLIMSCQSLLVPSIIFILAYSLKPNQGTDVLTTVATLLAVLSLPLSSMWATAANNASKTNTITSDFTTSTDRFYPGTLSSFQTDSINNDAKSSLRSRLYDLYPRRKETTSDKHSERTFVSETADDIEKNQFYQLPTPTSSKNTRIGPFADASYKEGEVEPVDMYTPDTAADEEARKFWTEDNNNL
Description: (§1) Assay for FUS1-HIS3 Expression. Reverse halo assays were carried out by growing MMY9 cells to early stationary phase (OD600≈4) in liquid SC-glucose (2%) medium lacking tryptophan and uracil. A uniform layer of cells (5×10^7) was plated to 22.5 cm by 22.5 cm bioassay dishes (Nunc) in 100 ml SC-glucose agar (1%) equilibrated to 50° C. This medium lacked tryptophan, uracil and histidine, and was supplemented with 10 mM 3-aminotriazole, and buffered to pH 7.0 with 0.1M sodium phosphate. Antibiotic discs were placed on the solidified agar, and a volume of agonist solution (1-5 μl) was applied to each disc. Plates were incubated at 30° C. for 3 days.
(§2) The four receptors were: the melatonin ML1B receptor, the serotonin 5HT1A receptor, the somatostatin SST2 receptor and the purinergic nucleotide receptor, P2Y2. […] Activation of the pheromone response pathway was monitored with two integrated reporter genes: […] allowing a growth readout in medium lacking histidine, and FUS1-lacZ allowing a β-galactosidase readout. […] Agonist-dependent activation of FUS1-HIS3 was determined by reverse halo assay in which agonists were applied to the filter discs in the arrangement shown in panel A, in quantities as follows: 3 nmol of somatostatin-14 (S-14); 40 nmol of melatonin (Mel); 3 nmol of α-factor; 100 nmol of UTP; 40 nmol of serotonin (5-HT). […]

[2] = molecular target: T2, serotonin 5HT1A receptor (Homo sapiens, UniProt P08908); assay: Reverse halo assay for FUS1-HIS3 expression, MMY9 cells, 5-HT1A; format: cell-based; details: MMY9 cells with pRS314-GPA1 and 5-HT1A receptor, 40 nmol serotonin
T2 construct: expressed in transfected cells; host or cells: Saccharomyces cerevisiae strains MMY9 and MMY11, plasmid pDT-PGK-5-HT1A
T2 sequence (P08908 1-422): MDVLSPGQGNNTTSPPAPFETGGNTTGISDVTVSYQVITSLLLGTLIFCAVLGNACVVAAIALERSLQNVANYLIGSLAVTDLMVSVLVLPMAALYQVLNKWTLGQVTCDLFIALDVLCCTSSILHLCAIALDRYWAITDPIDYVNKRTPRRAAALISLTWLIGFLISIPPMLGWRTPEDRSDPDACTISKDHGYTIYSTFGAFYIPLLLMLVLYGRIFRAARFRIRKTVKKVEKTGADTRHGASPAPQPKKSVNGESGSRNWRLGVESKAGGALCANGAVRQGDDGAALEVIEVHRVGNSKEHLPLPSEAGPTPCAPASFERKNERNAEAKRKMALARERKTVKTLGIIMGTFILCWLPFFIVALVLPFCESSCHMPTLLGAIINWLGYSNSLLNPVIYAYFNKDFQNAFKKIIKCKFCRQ
Description: as §1, §2

B1: Gpa1p: endogenous yeast Gα subunit, product of the GPA1 gene (protein, UniProt P08539 2-472, looked up)
Guanine nucleotide-binding …: GCTVSTQTIGDESDPFLQNKRANDVIEQSLQLEKQRDKNEIKLLLLGAGESGKSTVLKQLKLLHQGGFSHQERLQYAQVIWADAIQSMKILIIQARKLGIQLDCDDPINNKDLFACKRILLKAKALDYINASVAGGSDFLNDYVLKYSERYETRRRVQSTGRAKAAFDEDGNISNVKSDTDRDAETVTQNEDADRNNSSRINLQDICKDLNQEGDDQMFVRKTSREIQGQNRRNLIHEDIAKAIKQLWNNDKGIKQCFARSNEFQLEGSAAYYFDNIEKFASPNYVCTDEDILKGRIKTTGITETEFNIGSSKFKVLDAGGQRSERKKWIHCFEGITAVLFVLAMSEYDQMLFEDERVNRMHESIMLFDTLLNSKWFKDTPFILFLNKIDLFEEKVKSMPIRKYFPDYQGRVGDAEAGLKYFEKIFLSLNKTNKPIYVKRTCATDTQTMKFVLSAVTDLIIQQNLKKIGII
agonist-dependent activation of FUS1-HIS3 (halo of cell growth) [1]: increased expression of FUS1-HIS3 to enable a halo of cell growth | agonist-dependent activation of FUS1-HIS3 (halo of cell growth) [2]: did not activate FUS1-HIS3 in response to the agonist serotonin
